B1: Jamc extracellular domain fused to rat Cd4 domains 3 and 4 (Jamc-Cd4d3+4-6H; Jamc-Cd4d3+4-bio) (domain or fragment, zebrafish, UniProt A3KPA0 24-235, looked up)
chain: VLLKSTNSKPWVNEFESIELSCMIESITTTKPRIEWKKIKNGDPSYVYFDNQISGDLERRAKIREPATLVILNATRSDSADYRCEVTAPNDQKSFDEILISLTVRVKPVVPRCSVPKSIPVGKPAELHCLEDEGYPKSQYQWFRNKEEIPLDPKSSPKFFNSTYTLDGEMGTLKFSAVRKEDAGEYYCRAKNEAGISECGPQMMEVYDINIA
notes: Jamc (official symbol jam3b), zebrafish, Entrez Gene 569217; Two forms with the same ectodomain were made; They are written as one molecule because the protein stood against itself in the homophilic test; also called Jam3b; zebrafish JAM-C orthologue; source: expressed as a soluble fusion protein, purified; not shown: rat Cd4 domains 3 and 4, C-terminal, kept; His6, C-terminal, kept
B2: Jamb extracellular domain fused to rat Cd4 domains 3 and 4 (Jamb-Cd4d3+4-6H; Jamb-Cd4d3+4-bio) (domain or fragment, zebrafish, UniProt A0A0R4IGV4 19-226, looked up)
chain: VTVSSRNPKVEVHEFSDAELSCEFKTEKDTNPRIEWKRKDKEKDVSFVYYGERFVGPFQDRADIEGATVRLRRVTQADAGEYRCEVSAPSDSISLGETNVTLRVLVPPQTPSCDVPSSALTGSQVELRCRDRHSIPPAVYTWYKDNRALPIRHPNATYTVNEFTGVLIPQSHYNPGTVCQHCMYHPNYHIPNTQLTTTFQTHDLNVAA
notes: Jamb (official symbol jam2a), zebrafish, Entrez Gene 100005261; Two forms with the same ectodomain were made; They are written as one molecule because the protein stood against itself in the homophilic test; also called Jam2a; zebrafish JAM-B orthologue; source: expressed as a soluble fusion protein, purified; not shown: rat Cd4 domains 3 and 4, C-terminal, kept; His6, C-terminal, kept

How the values were obtained:
[1] = molecular target: B2; test: SPR; dissociation phase averaged over three concentrations of purified Jamc-Cd4d3+4-6H or Jamb-Cd4d3+4-6H analyte, fitted to a first-order decay; homophilic and heterophilic interactions; conditions: both partners purified
[2] = molecular target: B1; test: SPR; equilibrium binding analysis with soluble recombinant extracellular domains; Jamc analyte; essentially as in ref. 33; conditions: both partners purified

stoichiometry N [1]	Kd [2] [µM]	Binder
1		B1
	~4.7	B2
